The results in this text go back to publication PMC2889927.

Experiment in all cases: flow cytometry on cells; PE-conjugated OCH-loaded human CD1d tetramers on human iNKT clones; 4°C, 45 min; mean fluorescence intensity
For orientation: In flow cytometry, cells or beads pass a laser one at a time.

In assay [1] the target is TCR of the human iNKT clone 4C1227, on the cells of the clone (human).
Assay [2] deals with TCR of the human iNKT clone 4C1369, on the cells of the clone (human).
Assay [3] addresses TCR of the human iNKT clone 4C862, on the cells of the clone (human).
Assay [4] deals with TCR of the human iNKT clone 4C866, on the cells of the clone (human).
In assay [5] the target is TCR of the human iNKT clone DN347, on the cells of the clone (human).

B1: PE-conjugated human CD1d tetramer loaded with OCH (complex)
chain: EVPQRLFPLRCLQISSFANSSWTRTDGLAWLGELQTHSWSNDSDTVRSLKPWSQGTFSDQQWETLQHIFRVYRSSFTRDVKEFAKMLRLSYPLELQVSAGCEVHPGNASNNFFHVAFQGKDILSFQGTSWEPTQEAPLWVNLAIQVLNQDKWTRETVQWLLNGTCPQFVSGLLESGKSELKKQVKPKAWLSRGPSPGPGRLLLVCHVSGFYPKPVWVKWMRGEQEQQGTQPGDILPNADETWYLRATLDVVAGEAAGLSCRVKHSSLEGQDIVLYWGGSYTSMGLIALAVLACLLFLLIVGFTSRFKRQTSYQGVL
On to B1, for which the OCH-tet (MFI) in assay [1] was found to be 1230 MFI; in assay [2], 1370 MFI; in assay [3] it was 862 MFI; in assay [4], 866 MFI; in assay [5], 347 MFI.
